Measurements reported in publication PMC3159451.

B1: Inverted (dsDNA)
DNA 1: GGACCGACTC
DNA 2: GAGTCGGTCC
modifications: 5-methyl-C at position 5 of both strands
B2: rho-globin mCpG WT 10 bp (dsDNA)
DNA 1: GGATCGGCTC
DNA 2: GAGCCGATCC
modifications: 5-methyl-C at position 5 of both strands (mC105, mC115)
B3: Thy104Gua (dsDNA)
DNA 1: GGAGCGGCTC
DNA 2: GAGCCGCTCC
modifications: 5-methyl-C at position 5 of both strands
B4: Gua107Thy (dsDNA)
DNA 1: GGATCGTCTC
DNA 2: GAGACGATCC
modifications: 5-methyl-C at position 5 of both strands

Experiments:
Assay in all cases: SPR
cMBD2 MBD WT = cMBD2 MBD WT (Gallus gallus (chicken), UniProt Q5EFL0 2-71)
cMBD2 MBD K32A = cMBD2 MBD K32A (Gallus gallus (chicken), UniProt Q5EFL0 2-71, K31A)
cMBD2 MBD K19W = cMBD2 MBD K19W (Gallus gallus (chicken), UniProt Q5EFL0 2-71, K18W)
cMBD2 MBD Y36F = cMBD2 MBD Y36F (Gallus gallus (chicken), UniProt Q5EFL0 2-71, Y35F)
cMBD2 MBD R46C = cMBD2 MBD R46C (Gallus gallus (chicken), UniProt Q5EFL0 2-71, R45C)
cMBD2 MBD R67M = cMBD2 MBD R67M (Gallus gallus (chicken), UniProt Q5EFL0 2-71, R66M)

| Binder | Kd (cMBD2 MBD WT) [nM] | Kd (cMBD2 MBD K32A) [µM] | Kd (cMBD2 MBD K19W) [µM] | Kd (cMBD2 MBD Y36F) [µM] | Kd (cMBD2 MBD R46C) [µM] | Kd (cMBD2 MBD R67M) [µM] |
| --- | --- | --- | --- | --- | --- | --- |
| B1 | 2300 ± 500 | – | – | – | – | – |
| B2 | 2100 ± 100 | 291 ± 19 | 135 ± 17 | 109 ± 3 | 590 ± 71 | 197 ± 17 |
| B3 | 2200 ± 100 | – | – | – | – | – |
| B4 | 29000 ± 2000 | – | – | – | – | – |
